Assay results from publication PMC8193172.

Target: Hydrophobin-BMP2 fusion protein (UniProt P12643)
Experiment: SDS-PAGE and Western blot

- stoichiometry N: 2
Substance: Hydrophobin-BMP2 fusion protein (from UniProt P12643 283-396)
